Article PMC4829420, “The innate immune sensor IFI16 recognizes foreign DNA in the nucleus by scanning along the duplex” (eLife, 2015)

Target: the molecule itself
Experiment: single-molecule fluorescence imaging (TIRF) with intensity analysis; Cy5-labelled IFI16 (3 to 5 nM) supplied under constant flow (20 ul/min) to single-biotinylated lambda dsDNA anchored on a coverslip; number of molecules per cluster from particle intensity against single molecules at 1 nM; 40 mM HEPES pH 7.4, 160 mM KCl, 1 mM EDTA, 2 mM DTT, 10% glycerol, 0.1% Triton-X100, 250 ug/ml BSA; room temperature

B1: Human full-length IFI16 (interferon-inducible protein 16) (natural protein, UniProt Q16666 1-785, looked up)
chain: MGKKYKNIVLLKGLEVINDYHFRMVKSLLSNDLKLNLKMREEYDKIQIADLMEEKFRGDAGLGKLIKIFEDIPTLEDLAETLKKEKLKVKGPALSRKRKKEVDATSPAPSTSSTVKTEGAEATPGAQKRKKSTKEKAGPKGSKVSEEQTQPPSPAGAGMSTAMGRSPSPKTSLSAPPNSSSTENPKTVAKCQVTPRRNVLQKRPVIVKVLSTTKPFEYETPEMEKKIMFHATVATQTQFFHVKVLNTSLKEKFNGKKIIIISDYLEYDSLLEVNEESTVSEAGPNQTFEVPNKIINRAKETLKIDILHKQASGNIVYGVFMLHKKTVNQKTTIYEIQDDRGKMDVVGTGQCHNIPCEEGDKLQLFCFRLRKKNQMSKLISEMHSFIQIKKKTNPRNNDPKSMKLPQEQRQLPYPSEASTTFPESHLRTPQMPPTTPSSSFFTKKSEDTISKMNDFMRMQILKEGSHFPGPFMTSIGPAESHPHTPQMPPSTPSSSFLTTKSEDTISKMNDFMRMQILKEGSHFPGPFMTSIGPAESHPHTPQMPPSTPSSSFLTTLKPRLKTEPEEVSIEDSAQSDLKEVMVLNATESFVYEPKEQKKMFHATVATENEVFRVKVFNIDLKEKFTPKKIIAIANYVCRNGFLEVYPFTLVADVNADRNMEIPKGLIRSASVTPKINQLCSQTKGSFVNGVFEVHKKNVRGEFTYYEIQDNTGKMEVVVHGRLTTINCEEGDKLKLTCFELAPKSGNTGELRSVIHSHIKVIKTRKNKKDILNPDSSMETSPDFFF
modifications: DyLight-550, DyLight-650 or Cy5 fluorophore incorporated by maleimide chemistry; label to protein ratio ~1:1
notes: interferon-inducible protein 16 (IFI16), human, full length; FRET assays mixed DyLight-550 and DyLight-650 labelled protein 1:1; microscopy used Cy5-labelled protein; also called IFI16-550; IFI16-650; source: E. coli T7 express cells (NEB), as described in Morrone et al., 2014
  stoichiometry N: ≥ 8 protomers per cluster
